This note sets out measurements from US12715905B2, “Methods of characterizing and purifying VEGF receptor fusion protein” (Regeneron Pharmaceuticals, Inc., priority 2023, dated 2026).

Where a SMILES comes first, the peptide text is derived from it. [ ]: non-standard residue; d: D form. The star is where a group is joined. Sta = CC(C)C[C@H](N)[C@@H](O)CC(=O)O; Isovaleryl = CC(C)CC(=O)* A value given as a limit tells only on which side of the number the result lay.

The test system of data set [1] is cathepsin D. Put plainly: Protease inhibitor confirmation study: pepstatin A added to DSI samples, NR-1 band and Y/L clipping. It counts as biochemical, Chinese hamster. As to conditions: DSI samples from both facilities, pepstatin A added at 37° C., assessed at day 3 and day 5. The method, then: Once cathepsin D was identified to be a potential reason for the cleavage of aflibercept, a cathepsin D inhibitor was used to confirm the finding. AEBSF and Aprotinin bovine lung (serine protease inhibitors), E64 and Leupeptin hemisulfate (cysteine protease inhibitors) and pepstatin A (an aspartic protease inhibitor) were evaluated for their ability to inhibit activity of cathepsin D.
To the samples from lots from both the facilities containing DSI at t=0, pepstatin A was added at 37° C. and % of NR-1 band formed was assessed at day 3 and day 5.

Data set [2] concerns cathepsin D. Kind of data set: Stability observation in presence and absence of inhibitor pepstatin A (SE-UPLC HMW, CE-SDS NR1). It is filed as physicochemical, Chinese hamster. The method, then:
Formulated Drug Substance with high (pre-optimization) and low (post-optimization) cathepsin D were blended to achieve various levels of cathD (FIG. 35B). These mixtures were prepared to compare to cathepsin D levels below, at, and above the highest known levels that were observed post-optimized IVT and had acceptable stability performance. The blended material was put on 25° C. stability observation in both the presence and absence of the inhibitor pepstatin A (FIG. 35A).
The Drug Substance Intermediate from two Lots was placed on stability observation at 25° C. in the presence (open triangle) and absence (closed triangle) of the inhibitor pepstatin A for 6 months (FIG. 36).
Samples were placed on 25° C. and 5° C. stability observation in the presence and absence of cathepsin D inhibitor. HMW formation was analyzed by SE-UPLC and NR1 formation was analyzed by CE-SDS.

The subject of data set [3] is cathepsin D. Put plainly: Cathepsin D spike-in into aflibercept DS, Y92L93 clipping / NR-1 band. It is filed as physicochemical, Chinese hamster. On the procedure: Production of the Y92L93 clipping was attempted using cathepsin D. To a sample of aflibercept DS, cathepsin D was added and incubated at 37° C. at pH 6.1. Different concentrations of cathepsin D were evaluated, including 1 ppm, 2 ppm, 5 ppm, and 10 ppm.
Since the failure of cathepsin D to affect the truncation could be due to reaction conditions, the experiment was repeated at a lower pH since cathepsin D needs to be activated by lower pH for conformational switch to mature cathepsin D. Cathepsin-D is an aspartic protease that depends critically on protonation of its active site Asp residue. Along with Asp-protonation, lower pH also leads to conformational switch in mature cathepsin-D. See Briozzo P et al. (1988). Cancer Research. 48 (13): 3688-92.
To test the DS samples with the presence of activated cathepsin D, to a sample from DS at t=0, 100 ppm acidified cathepsin D was added at 37° C. and incubated for 5 hours.
The clipping activity was also observed at neutral condition when acidified […]) was added.
Target sequence in this assay (as listed by the source): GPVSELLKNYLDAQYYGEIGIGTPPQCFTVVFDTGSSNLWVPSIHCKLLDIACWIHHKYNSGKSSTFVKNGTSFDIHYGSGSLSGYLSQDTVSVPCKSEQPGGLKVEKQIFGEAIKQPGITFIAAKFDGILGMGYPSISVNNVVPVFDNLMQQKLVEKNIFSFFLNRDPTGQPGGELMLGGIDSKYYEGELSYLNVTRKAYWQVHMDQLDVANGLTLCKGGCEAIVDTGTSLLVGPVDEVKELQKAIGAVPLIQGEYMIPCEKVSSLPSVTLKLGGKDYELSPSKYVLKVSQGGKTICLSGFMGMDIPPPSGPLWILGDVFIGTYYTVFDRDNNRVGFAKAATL

For data set [4], the system named is cathepsin D. Kind of data set: Impact of pH on NR-1 band formation in DSI incubated at 37° C. It counts as physicochemical, Chinese hamster. On the procedure: Testing of DSI samples from both facilities A and B for aflibercept production also show similar results.
The impact of pH is so significant that use of different buffers can also show a difference in the Y92L93 clipping observed during the production of aflibercept. For example, citric acid was employed at facility B to achieve a pH of 6.1 and sodium citrate was employed at facility A to achieve a pH of 6.2, despite other conditions remaining the same (i.e., incubation of DSI at 37° C. for 12 days, intermediate time point taken at 3rd and 6th day). While the difference in the pH is 0.1, the effect through cathepsin D based clipping is notable over time (data not shown).
All samples were incubated at 37° C. for 12 days, intermediate time point taken at 3rd and 6th day.
Target sequence in this assay (G3I4W7 65-408 limits assumed): as the sequence (as listed by the source) above

A short description of data set [5]: Stability study of aflibercept lots at 5° C. and 25° C. (CE-SDS, SE-UPLC). It is filed as physicochemical. On the procedure:
This study investigated how a residual HCP can piggy-back through the aflibercept DSI manufacturing process.
Drug substance intermediate (DSI) lots containing aflibercept at two different concentrations (40 mg/ml and 114.3 mg/ml) were evaluated at 5° C. and 25° C.
Using the modified SEC purification, the high concentration DSI lot was purified downstream using SEC. […] (as mentioned in Example 10).
An earlier cut in time for the eluting peak was implemented for the SEC step for the higher concentration DSI lots (FIG. 28) resulting in increased clearance and subsequently lower levels of cathepsin D at FDS (FIG. 29). […] Accelerated stability (25′C for 6 months) was investigated. The cumulative increase in HMW (FIG. 33A) and R1 (FIG. 33B) was represented over that 6 months by calculation of the slope. […] The DSI was analyzed for stability at 25° C. for 6 months. The rate of NR1 species was calculated from T0 to T6 months and plotted against the cathepsin D value obtained by ELISA (FIG. 34A), Activity Assay (FIG. 34B) and Mass Spectrometry (FIG. 34C).

Data set [6] in a line: Mass spectrometry analysis of Y92/L93 clipping in stability lots. It counts as physicochemical. As to conditions: high concentration (114.3 mg/mL) lot vs low concentration lots, accelerated stability. The method, then: The analysis was performed by denaturing SEC-MS, which can provide (partial) liquid chromatography separation between the intact receptor domain and NR1 species (with Fc removed) for the successful detection of the low levels of NR1 species. The DS and DSI sample from lots A and B were analyzed using a modified mass analysis (samples 1-7 are representative of both DS and DSI samples from both the lots). The modification made is possible to differentiate the peaks of the receptor domain of aflibercept and truncated aflibercept.
Mass spectrometry analysis further confirmed (3.4×) higher levels of Y92/L93 clipping for the unexpected aflibercept high concentration lot when compared to […] clipping observed for low concentration lots (FIG. 18). Increased NR1 due to cathepsin D cleavage at Y92/L93 of aflibercept was linked to increased aggregate formation (FIG. 19 and FIG. 20).

Data set [7] deals with cathepsin D. Kind of data set: Octet HTX interaction analysis of aflibercept and cathepsin D. It is filed as binding, Chinese hamster. The method, then: FIG. 31 […], wherein cathepsin D was immobilized to the biosensor, while VEGF-Trap was the analyte (A), according to an exemplary embodiment.
Interaction analysis was carried out using OCTET HTX sensorgram.
Since cathepsin D can “piggy back” onto aflibercept during purification of aflibercept, in order to reduce the interactions, use of surfactants was implemented.
Target sequence in this assay (G3I4W7 entry or part of it F138E): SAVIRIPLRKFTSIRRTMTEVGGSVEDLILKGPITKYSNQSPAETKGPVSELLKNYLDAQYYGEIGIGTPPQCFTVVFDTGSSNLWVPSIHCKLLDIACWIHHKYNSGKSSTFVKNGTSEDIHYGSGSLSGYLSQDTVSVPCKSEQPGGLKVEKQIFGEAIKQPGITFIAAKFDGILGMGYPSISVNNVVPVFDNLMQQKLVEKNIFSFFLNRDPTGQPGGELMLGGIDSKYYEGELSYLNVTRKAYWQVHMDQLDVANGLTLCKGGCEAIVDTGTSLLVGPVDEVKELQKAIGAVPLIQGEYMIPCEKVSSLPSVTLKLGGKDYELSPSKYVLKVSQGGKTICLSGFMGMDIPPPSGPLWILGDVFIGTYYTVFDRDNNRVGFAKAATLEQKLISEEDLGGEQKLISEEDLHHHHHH
In general terms: In BLI a coated tip is dipped into the sample, and binding shifts an interference pattern.

[8] abbreviates: DSI from two lots, 25° C., 6 months, pepstatin A present vs absent.

On to `CC(C)CC(=O)N[C@H](C(=O)N[C@H](C(=O)N[C@@H](CC(C)C)[C@@H](O)CC(=O)N[C@@H](C)C(=O)N[C@@H](CC(C)C)[C@@H](O)CC(=O)O)C(C)C)C(C)C` [pepstatin A] (Isovaleryl-VV[Sta]A[Sta]-OH), for which, in data set [1], the NR-1 band formation entry is listed as “NR-1 band increase stopped” and the Y/L clipping entry is “Y/L clipping ceased”. Also, in data set [2] (setting [8]), the “HMW formation (SE-UPLC)” value is listed as “reduced HMW formation” and the “NR1 formation (CE-SDS)” value is reported as “reduced NR1 formation”.
For the compound aflibercept, the Y/L clipping entry in data set [3] (DS at t=0, 100 ppm acidified cathepsin D, 37° C., 5 hours) is listed as “led to Y/L clipping of aflibercept”; in data set [3] (aflibercept DS, 10 ppm Cathepsin D spiked in, pH 6.1, 37° C., 8 days), “Negligible”; in data set [3] (aflibercept DS, 100 ppm Cathepsin D spiked in, pH 6.1, 37° C., 8 days), < 1%. In addition, the “NR-1 band formation and Y/L cleavage” value in data set [3] (aflibercept DS, 0.5-20 ppm acidified cathepsin D, neutral condition, 7 days at 37° C.) is “correlation between spiked-in cathepsin D and NR-1 band formation, and Y/L cleavage”. Moreover, the NR-1 band formation result in data set [4] (DSI sample, pH 4.5 compared to pH 6.3) was “significant NR-1 band”; in data set [4] (pH 6.45), “Effectively no NR-1 band is formed”. Further, the 92Y93L clipping entry in data set [4] (pH increased to 6.45 by adding sodium citrate, 37° C. for 12 days) was “stopped the 92Y93L clipping”. In addition, the “rates of aggregation and fragmentation” value in data set [5] (114.3 mg/mL formulated drug substance (FDS) lot, accelerated stability 25° C. for 6 months) was “increased rates of aggregation and fragmentation”. Also, in data set [5] (5° C. condition, through the 12-month time point), the fragmentation entry is “absence of fragmentation”. Also, the LMW levels entry in data set [5] (FDS lots after modified SEC purification (earlier cut), 25° C. at 3 months) is “in line with comparators”. Moreover, the “levels of Y92/L93 clipping, high concentration lot compared to low concentration lots” value in data set [6] is listed as 3.4 ×. For the same compound, the “KD of aflibercept-cathepsin D interaction, change” value in data set [7] (about 0.003% PS20 (polysorbate 20)) is “about 4 fold”. For the same compound, the “binding to Cathepsin D” value in data set [7] (range of VEGF-Trap concentration) is on record as “concentration dependent binding”. For the same compound, the “interaction between aflibercept and cathepsin D” value in data set [7] (range of buffer pH) is listed as “increased with reducing buffer pH”. Moreover, in data set [2] (FDS, 5° C., inactive cathepsin D (inhibitor and/or low temperature), up to 18 months), the “formation of NR1” value is listed as “no formation of NR1”.
